Source: US20180258163A1 (Chugai, published 2018)
Changes are numbered by the printed parent chain.

T1: soluble human FcγRIIb (human, UniProt P31994 43-217, limits assumed)
T1 construct: soluble His-tagged form; also called hFcγRIIb
T1 sequence (looked up): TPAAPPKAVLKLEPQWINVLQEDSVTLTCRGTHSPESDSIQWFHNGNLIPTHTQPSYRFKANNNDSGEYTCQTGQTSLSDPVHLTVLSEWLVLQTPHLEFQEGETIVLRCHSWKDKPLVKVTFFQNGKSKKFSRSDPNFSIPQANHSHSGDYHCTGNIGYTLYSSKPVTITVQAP

B1: Ab1H-P600/Ab1L (antibody, human IgG1, kappa, name in EU numbering)
heavy: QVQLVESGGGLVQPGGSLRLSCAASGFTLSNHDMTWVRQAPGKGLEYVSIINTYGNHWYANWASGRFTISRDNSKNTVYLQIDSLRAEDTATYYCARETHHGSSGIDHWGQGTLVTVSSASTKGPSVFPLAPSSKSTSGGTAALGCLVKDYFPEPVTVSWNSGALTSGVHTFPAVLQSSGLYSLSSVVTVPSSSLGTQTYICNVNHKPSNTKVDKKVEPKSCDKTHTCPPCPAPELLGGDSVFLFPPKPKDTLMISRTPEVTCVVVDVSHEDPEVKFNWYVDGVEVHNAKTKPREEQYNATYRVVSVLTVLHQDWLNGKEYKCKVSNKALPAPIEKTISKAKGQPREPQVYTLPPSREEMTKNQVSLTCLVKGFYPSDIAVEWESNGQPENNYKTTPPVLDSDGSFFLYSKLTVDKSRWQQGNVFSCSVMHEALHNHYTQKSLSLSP
light: DIQMTQSPSSVSASVGDRVTITCQASESIYSGLAWYQQKPGQPPKLLIYDHSTLASGVPSRFSGSGSGTEYALTISSLQPEDFATYYCQHADYAHHSDNVFGGGTKVEIKRTVAAPSVFIFPPSDEQLKSGTASVVCLLNNFYPREAKVQWKVDNALQSGNSQESVTEQDSKDSTYSLSSTLTLSKADYEKHKVYACEVTHQGLSSPVTKSFNRGEC
notes: copies: 2 + 2
B2: Ab1H-P920/Ab1L (antibody, human IgG1, kappa, name in EU numbering)
heavy: QVQLVESGGGLVQPGGSLRLSCAASGFTLSNHDMTWVRQAPGKGLEYVSIINTYGNHWYANWASGRFTISRDNSKNTVYLQIDSLRAEDTATYYCARETHHGSSGIDHWGQGTLVTVSSASTKGPSVFPLAPSSKSTSGGTAALGCLVKDYFPEPVTVSWNSGALTSGVHTFPAVLQSSGLYSLSSVVTVPSSSLGTQTYICNVNHKPSNTKVDKKVEPKSCDKTHTCPPCPAPELLGGDSVFLFPPKPKDTLMISRTPEVTCVVVDVSHEDPEVKFNWYVDGVEVHNAKTKPREEQYNATYRVVSVLTVLHQDWLNGKEYKCKVSNKALPRPIEKTISKAKGQPREPQVYTLPPSREEMTKNQVSLTCLVKGFYPSDIAVEWESNGQPENNYKTTPPVLDSDGSFFLYSKLTVDKSRWQQGNVFSCSVMHEALHNHYTQKSLSLSP
light: B1 light
notes: copies: 2 + 2
B3: Ab1H-P917/Ab1L (antibody, human IgG1, kappa, name in EU numbering)
heavy: B2 heavy with A329R, R332A
light: B1 light
notes: copies: 2 + 2
B4: Ab1H-P908/Ab1L (antibody, human IgG1, kappa, name in EU numbering)
heavy: B2 heavy with R332A, N436R
light: B1 light
notes: copies: 2 + 2
B5: Ab1H-P843/Ab1L (antibody, human IgG1, kappa, name in EU numbering)
heavy: B2 heavy with R332A, E382R
light: B1 light
notes: copies: 2 + 2
B6: Ab1H-P918/Ab1L (antibody, human IgG1, kappa, name in EU numbering)
heavy: B2 heavy with L330R, R332A
light: B1 light
notes: copies: 2 + 2
B7: Ab1H-P910/Ab1L (antibody, human IgG1, kappa, name in EU numbering)
heavy: B2 heavy with L311R, R332A
light: B1 light
notes: copies: 2 + 2
B8: Ab1H-P831/Ab1L (antibody, human IgG1, kappa, name in EU numbering)
heavy: B2 heavy with R332A, P389R
light: B1 light
notes: copies: 2 + 2
B9: Ab1H-P848/Ab1L (antibody, human IgG1, kappa, name in EU numbering)
heavy: B2 heavy with R332A, S417R
light: B1 light
notes: copies: 2 + 2
B10: Ab1H-P851/Ab1L (antibody, human IgG1, kappa, name in EU numbering)
heavy: B2 heavy with R332A, N423R
light: B1 light
notes: copies: 2 + 2
B11: Ab1H-P906/Ab1L (antibody, human IgG1, kappa, name in EU numbering)
heavy: B2 heavy with R332A, G387R
light: B1 light
notes: copies: 2 + 2
B12: Ab1H-P849/Ab1L (antibody, human IgG1, kappa, name in EU numbering)
heavy: B2 heavy with R332A, Q420R
light: B1 light
notes: copies: 2 + 2
B13: Ab1H-P925/Ab1L (antibody, human IgG1, kappa, name in EU numbering)
heavy: B2 heavy with Y298R, R332A
light: B1 light
notes: copies: 2 + 2
B14: Ab1H-P828/Ab1L (antibody, human IgG1, kappa, name in EU numbering)
heavy: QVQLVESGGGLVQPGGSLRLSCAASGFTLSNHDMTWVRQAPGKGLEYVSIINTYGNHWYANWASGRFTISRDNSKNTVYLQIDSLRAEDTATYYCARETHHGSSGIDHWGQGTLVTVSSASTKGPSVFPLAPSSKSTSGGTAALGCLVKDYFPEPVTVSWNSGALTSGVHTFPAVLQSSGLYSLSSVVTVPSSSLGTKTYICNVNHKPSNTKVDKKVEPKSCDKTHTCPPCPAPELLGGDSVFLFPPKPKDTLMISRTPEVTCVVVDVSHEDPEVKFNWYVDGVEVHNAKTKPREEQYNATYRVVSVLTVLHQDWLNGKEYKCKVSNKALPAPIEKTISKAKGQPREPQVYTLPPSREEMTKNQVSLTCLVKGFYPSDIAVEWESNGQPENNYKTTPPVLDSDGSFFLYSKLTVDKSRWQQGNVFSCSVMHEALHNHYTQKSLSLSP
light: B1 light
notes: copies: 2 + 2
B15: Ab1H-P921/Ab1L (antibody, human IgG1, kappa, name in EU numbering)
heavy: B2 heavy with R332A, P333R
light: B1 light
notes: copies: 2 + 2
B16: Ab1H-P927/Ab1L (antibody, human IgG1, kappa, name in EU numbering)
heavy: B2 heavy with E296R, R332A
light: B1 light
notes: copies: 2 + 2
B17: Ab1H-P846/Ab1L (antibody, human IgG1, kappa, name in EU numbering)
heavy: B2 heavy with R332A, Q388K
light: B1 light
notes: copies: 2 + 2
B18: Ab1H-P842/Ab1L (antibody, human IgG1, kappa, name in EU numbering)
heavy: B2 heavy with R332A, Q364K
light: B1 light
notes: copies: 2 + 2
B19: Ab1H-P914/Ab1L (antibody, human IgG1, kappa, name in EU numbering)
heavy: B2 heavy with R332A, D401R
light: B1 light
notes: copies: 2 + 2
B20: Ab1H-P919/Ab1L (antibody, human IgG1, kappa, name in EU numbering)
heavy: B2 heavy with P331R, R332A
light: B1 light
notes: copies: 2 + 2
B21: Ab1H-P905/Ab1L (antibody, human IgG1, kappa, name in EU numbering)
heavy: B2 heavy with R332A, N386R
light: B1 light
notes: copies: 2 + 2
B22: Ab1H-P928/Ab1L (antibody, human IgG1, kappa, name in EU numbering)
heavy: B2 heavy with E295R, R332A
light: B1 light
notes: copies: 2 + 2
B23: Ab1H-P847/Ab1L (antibody, human IgG1, kappa, name in EU numbering)
heavy: B2 heavy with R332A, N391K
light: B1 light
notes: copies: 2 + 2
B24: Ab1H-P854/Ab1L (antibody, name in EU numbering)
heavy: B2 heavy with R332A, L445R
light: B1 light
notes: copies: 2 + 2
B25: Ab1H-P829/Ab1L (antibody, human IgG1, kappa, name in EU numbering)
heavy: B2 heavy with R332A, S339R
light: B1 light
notes: copies: 2 + 2
B26: Ab1H-P850/Ab1L (antibody, human IgG1, kappa, name in EU numbering)
heavy: B2 heavy with R332A, Q421K
light: B1 light
notes: copies: 2 + 2
B27: Ab1H-P923/Ab1L (antibody, human IgG1, kappa, name in EU numbering)
heavy: B2 heavy with Q313R, R332A
light: B1 light
notes: copies: 2 + 2
B28: Ab1H-P840/Ab1L (antibody, human IgG1, kappa, name in EU numbering)
heavy: B2 heavy with R332A, T361K
light: B1 light
notes: copies: 2 + 2
B29: Ab1H-P926/Ab1L (antibody, human IgG1, kappa, name in EU numbering)
heavy: B2 heavy with Q297R, R332A
light: B1 light
notes: copies: 2 + 2
B30: Ab1H-P924/Ab1L (antibody, human IgG1, kappa, name in EU numbering)
heavy: B2 heavy with N317R, R332A
light: B1 light
notes: copies: 2 + 2
B31: Ab1H-P909/Ab1L (antibody, human IgG1, kappa, name in EU numbering)
heavy: B2 heavy with R332A, H437R
light: B1 light
notes: copies: 2 + 2
B32: Ab1H-P844/Ab1L (antibody, human IgG1, kappa, name in EU numbering)
heavy: B2 heavy with R332A, E384Q
light: B1 light
notes: copies: 2 + 2
B33: Ab1H-P852/Ab1L (antibody, human IgG1, kappa, name in EU numbering)
heavy: B2 heavy with R332A, S426K
light: B1 light
notes: copies: 2 + 2
B34: Ab1H-P841/Ab1L (antibody, human IgG1, kappa, name in EU numbering)
heavy: B2 heavy with R332A, N363R
light: B1 light
notes: copies: 2 + 2
B35: Ab1H-P837/Ab1L (antibody, human IgG1, kappa, name in EU numbering)
heavy: B2 heavy with R332A, E347R
light: B1 light
B36: Ab1H-P845/Ab1L (antibody, human IgG1, kappa, name in EU numbering)
heavy: B2 heavy with R332A, E384K
light: B1 light
notes: copies: 2 + 2
B37: Ab1H-P912/Ab1L (antibody, human IgG1, kappa, name in EU numbering)
heavy: B2 heavy with T309R, R332A
light: B1 light
notes: copies: 2 + 2
B38: Ab1H-P915/Ab1L (antibody, human IgG1, kappa, name in EU numbering)
heavy: B2 heavy with R332A, S402R
light: B1 light
notes: copies: 2 + 2

What follows are binders tested against T1, soluble human FcγRIIb (assay: SPR, Ab-IgE complex over captured hFcγRIIb, pH 7.4, 25C).
Experimental: Fc region variant-containing antibody binding assays between soluble human FcγRIIb (a.k.a. “hFcγRIIb”) and antigen-antibody complexes were performed using BIACORE® T200 (GE Healthcare). Soluble hFcγRIIb was produced in the form of a His-tagged molecule using methods known in the art. An appropriate amount of an anti-His antibody was fixed onto Sensor chip CM5 (GE Healthcare) by the amine coupling method using a His capture kit (GE Healthcare) to capture hFcγRIIb. Next, an antibody-antigen complex and a running buffer (as a reference solution) was injected, and interaction was allowed to take place with the hFcγRIIb captured onto the sensor chip. 20 mM N-(2-Acetamido)-2-aminoethanesulfonic acid, 150 mM NaCl, 1.2 mM CaCl₂, and 0.05% (w/v) Tween 20 at pH 7.4 was used as the running buffer, and the respective buffer was also used to dilute the soluble hFcγRIIb. To regenerate the sensor chip, 10 mM glycine-HCl at pH 1.5 was used. All measurements were carried out at 25° C. Analyses were performed based on binding (RU) calculated from sensorgrains obtained by the measurements, and relative values when the binding amount of P600 was defined as 1.00 are shown. To calculate the parameters, the BIACORE® T100 Evaluation Software (GE Healthcare) was used.

relative binding (RU), P600=1.00 [fold] | Binder
1 | B1
0.01 | B2
-0.05 | B3
0.42 | B4
-0.04 | B5
-0.06 | B6
1.73 | B7
3.85 | B8
1.38 | B9
1.43 | B10
1.74 | B11
2.21 | B12
-0.05 | B13
1.27 | B14
-0.07 | B15
0.25 | B16
1.71 | B17
2.37 | B18
1.72 | B19

relative binding (RU), P600=1.00 [fold] | Binder
-0.06 | B20
1.34 | B21
0.2 | B22
1.57 | B23
1.93 | B24
0.17 | B25
2.22 | B26
1.63 | B27
2.25 | B28
-0.06 | B29
2.08 | B30
0.73 | B31
1.24 | B32
1.4 | B33
1.86 | B34
1.88 | B35
1.38 | B36
0.24 | B37
0.85 | B38
